Ends that are not written are not given here.
Tests used:
[1] = molecular target: T1, peptide fragment of amino acid residues 266-277 of OX40 (human, also: conjugated to KLH for immunisation); experiment: ELISA screen of antibody-expressing cells on the OX40 antigen (peptide 266-277)
T1 construct: It was conjugated to KLH for immunisation; also called OX40 antigen; 12-amino acid fragment
T1 peptide: EQADAHSTLAKI
From the text: Anti-OX40 rabbit monoclonal antibodies were generated as schematically depicted in FIG. 1. Briefly, the peptide fragment of amino acid residues 266-277 of was synthesized. The 12-amino acid fragment intended for immunization was conjugated to keyhole limpet hemocyanin (KLH), an extensively used carrier protein for stimulating a substantial immune response via antibody production. New Zealand White rabbits were immunized with KLH conjugated OX40 antigen emulsified with complete Freund's adjuvant followed by a series of OX40 antigen booster emulsified with incomplete Freund's adjuvant. The antibody-expressing cells were screened by enzyme-linked immunoabsorbant assay (ELISA) using the OX40 antigen. All ELISA positive clones were further screened by immunohistochemistry (IHC), and the clone producing the antibody with the highest specificity was selected. For recombinant production of anti-OX40 antibodies, cDNA coding for the heavy chain and light chain sequences of the antibodies were cloned, expressed by co-transfection, and screened for binding to OX40 by IHC. Anti-OX40 monoclonal antibody SP197 was produced using these methods and subsequently purified by Protein A affinity chromatography. The heavy and light chain variable region sequences of the SP197 antibody are as follows.

[2] = molecular target: T2, human OX40 (human, UniProt P43489 29-277); experiment: IHC on FFPE OX-40 transfected cells and FFPE tissues, ultraView DAB detection
T2 construct: no signal peptide limits are stated
T2 sequence: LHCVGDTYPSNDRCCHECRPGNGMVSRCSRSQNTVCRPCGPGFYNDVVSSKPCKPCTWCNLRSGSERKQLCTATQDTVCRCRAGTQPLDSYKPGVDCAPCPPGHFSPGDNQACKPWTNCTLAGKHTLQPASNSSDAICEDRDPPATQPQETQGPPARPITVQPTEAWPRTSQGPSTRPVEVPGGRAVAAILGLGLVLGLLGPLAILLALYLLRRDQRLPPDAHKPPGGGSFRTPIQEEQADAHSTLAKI
Protocol: IHC was performed using StdCC1 cell conditioning with ultraView Universal DAB Detection Kit (Ventana Medical Systems, Inc., Tucson, Ariz.). Primary antibody was incubated for 16 min at 37° C. on a BenchMark ULTRA automated slide stainer (Ventana Medical Systems, Inc., Tucson, Ariz.). Results are shown at Fig. (A) Mock transfected cells (negative control cells); (B) OX-40 transfected cells (positive control cells); (C) Reactive lymph node; and (D) Prostate adenocarcinoma.

B1: Anti-OX40 monoclonal antibody SP197 (antibody, V domains shown)
VH: QSLEESGGRLVAPGGSLTLTCTVSGIDLSSDNIQWVRQAPGKGLEWIGAVDYNNKPFYANWAKGRFTISKTSSTTVDLKMTSLTTEDTATYFCAKNTFSPWGPGTLVTVSS
VL: DPAMTQTPSSTSAAVGGTVTINCQSSQSVYNANHLSWFQQKPGQPPKRLIYYISTPDSGVPPRFSGSGSGTQFTLTISGVQCDDAATYYCAALNSDEVFTFGGGTEVVVK
notes: also called rabbit anti-human OX-40 monoclonal antibody (SP197); anti-OX40 antibody SP197
B1: binds [1]; binds [2].

From US20180208666A1 (VENTANA MEDICAL SYSTEMS, published 2018)
